The text below walks through data of the nanobody polyreactivity screen of Harvey et al. (2022).

The nature of the data set: yeast display, Sf9 membrane polyspecificity reagent, FACS + sequencing; frameworks hold sequencing errors. Summed up: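 Galactose induction of a Saccharomyces cerevisiae BJ5465 synthetic nanobody display library ran 36–48 hours. The cells were then stained for 1 hour at 4 °C with 10% biotinylated, detergent-solubilized Sf9 membrane reagent, pulled down on streptavidin microbeads and FACS-sorted into low and high (top ~1%) gates on expression and reagent-binding fluorescence. Labels for polyreactivity follow the gate of origin.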
For the sequence “QVQLVESGGGLVQAGGSLRISCAASGSIFASNAMGWYRQAPGKEREFVAAITWRTDRTYYADSVKGRFTISRDNAKNTVYLQMNSLKPEDTAVYYCAADTWFYRFYYWGQGTQVTVSS”, the “polyreactivity (PSR sort gate)” value was “high polyreactivity”.
As for “QVQLVESGGGLVQAGGSLRISCAASGSIFDLNPMGGYRQAPGKERELVAAISSGGGTYYADSVKGRFTISRDNAKNTVYLQMNRLIPEDTAVYYCIRVTRWTSNYWGQCTQVTVSS”, the entry is “high polyreactivity”; as for “QVQLVESGGGLVQAGGSLRISCAASGSIFDRNAMGWYRQAPGKERELVAGISSGGGTNYADSVKGRFTISRDNAKNTVYFQMNSLKPEDTAVYYCAVYRYLSNRVKYDYWGQGTQVTVSS”, “low polyreactivity”; as for “QVQLVESGGGLVQAGGSLRISCAASGSIFGYYVMGWYRQAPGKERELVAAITGSVGDTYYADSVKGRFTISRDNAKNTVYLQMNSLKPVDTAVYYCNASNISPFRLLRSPMDYCGQGTQVTVSS”, “low polyreactivity”.
Then “QVQLVESGGGLVQAGGSLRISCAASGSIFLIFAMGWYRQSPGKERELVAAITQRGGSTYYADSVKGRFTISRDNAKNTVYFQMDSLKPEDTAVYYCNARRYVLRYNRFYYWGQGTQVTVSS”, with “high polyreactivity”; and “QVQLVESGGGLVQAGGSLRISCAASGSIFWANAMGWYRQAPWKERELVAAISSSGGRTYYADSVKGRFTISRDNAKNTVYLQMNSLKPEDSAVYDCNKLRLAYYEQGDYWGQGTQVNVSS”, with “high polyreactivity”.
Then “QVQLVESGGGLVQAGGSLRISCAASGSIFYGNAMGWYRQAPGKERELVAAISKRGGSTYYADSVKGRFTISRDNAKNTVYLQMNSLKPEDTAVYYCAKATAGHTEYYYWGQGTQVTVSS”, with “high polyreactivity”; and “QVQLVESGGGLVQAGGSLRISCAASGSIFYQYAMGWYRQAPGKERELVAGITWSGGSTYYADSVKGRFTISRDNAKNTVYLQMNSLKPEDSAVYYCARRYRGGYFWGQGTQVTVSS”, with “high polyreactivity”; and “QVQLVESGGGLVQAGGSLRISCAASGSILGLYAMGWYRQAPGKERELVAAITYRGGRTDYADSVKGRFTISRDNAKNTVYLQMNSLKPEDTAVYYCAAGYLPRPRYSTSYLYYYWGQGTQVTVSS”, with “high polyreactivity”.
Turning to “QVQLVESGGGLVQAGGSLRISCAASGSISSDNVMGWYRQAPGKERELVAAISSGTSTHYADSVKGSFTISRDNAKNTVYLQMNSLNQEDTAVYYCAAYFYRQYLYFLYEYDYWGQGTQVTVSS”, the “polyreactivity (PSR sort gate)” value was “low polyreactivity”.
As for “QVQLVESGGGLVQAGGSLRISCAASGSIVYPYAMGWYRQAPGKERELVAAISYSGGSTYYADSVKGSFTISRDNAKNTVYLQMNSLKPEDTAVYYCNVYAGQYGMNYWGQGTQVTVSS”, the entry is “high polyreactivity”; as for “QVQLVESGGGLVQAGGSLRISCAASGSNFTRYAMGWYRQAPGKERELVAAISNRGGRTYYADSVKGRFTISRDNAKNTVYLQMNSLKPEDTGVYYCNAATTRRIPQSDNYWGQGTQVTVSS”, “high polyreactivity”.
Then “QVQLVESGGGLVQAGGSLRISCAASGSPIWNYVMRWYRKAPGKVRDLVAAISIVGSTYYADSVKGRFTSSRDNAKNTVYFELNILKPEDTAVNYCNAGYFGGSNASKVRLSYDHWGQGTDVTVSS”, with “low polyreactivity”.
Then “QVQLVESGGGLVQAGGSLRISCAASGSTFEVNAMGWYRQAPGKERELVAAISYRGTSTYYADSVKGRFTISRDNAKNTVYLQMNSLKPEDNAVYYCAAEWYDWYWEYDSWGQGTQVTVSS”, with “high polyreactivity”.
On to “QVQLVESGGGLVQAGGSLRISCAASGSTFEYYAMGWYRQAPGKERELVATISIDGRTNYADSVKGRFTISRDNAKKTVYLQMNSLKPEDTAVYYCAARPYWRHRYDYWGQGTQVTVSS”, for which the “polyreactivity (PSR sort gate)” value is recorded as “low polyreactivity”.
Then “QVQLVESGGGLVQAGGSLRISCAASGSTFFYYSMGWYRQAPGKEWEFVAHITSSDASTHYADSVKGRFTISRDNAKNTVNLQMNSQQPEDTAVYYCAADRYCGQANYYWGQGTQVTVSS”, with “low polyreactivity”; and “QVQLVESGGGLVQAGGSLRISCAASGSTFGWYTMGWYRQAPGKERELVAAISQGGGRTRYADSVKGRFTISRDNAKNTVYLQMNSLKPEDTAVYYCAATYYHRPYISNYGYWGQGTQVTVSS”, with “high polyreactivity”; and “QVQLVESGGGLVQAGGSLRISCAASGSTFRLYAMGWYRQAPGKERELVAAISSNGVRTYYADSVKGRFTISRDNAKNTVYLQMNSLKPEDTAVYYCAARVYPAYPRGYDYWGQGTQVTVSS”, with “high polyreactivity”.
In the case of “QVQLVESGGGLVQAGGSLRISCAASGSTFSGNSMGRYRPAPGKERELFAAINSVRTYYADSVKGRFTISRDNAKNTVYLQMNSLIPEDTAVFSCAARQGYSSRFPAKGYYWGQGTQVTVSS”, the “polyreactivity (PSR sort gate)” value is given as “high polyreactivity”.
Then “QVQLVESGGGLVQAGGSLRISCAASGSTFSQYTMGWYRQAPGKERELVAAITWSGGRTYYADSVKGRFTISRDNAKNTVYLQMNSLKPEDTAVYYCNRDISGSSGGELDYWGQGTQVTVSS”, with “low polyreactivity”; and “QVQLVESGGGLVQAGGSLRISCAASGSTFSYYAMGWYRQAPGKERELVADISWSGGSTYYADSVKGRFTISRDNAKNTVYLQMNSQKPEDTAVFYCAARGYVRWYNRYDYWGQGTQVTVSS”, with “low polyreactivity”; and “QVQLVESGGGLVQAGGSLRISCAASGSTFTTYAMGWYRQAPGKERELVARIRSSGGITYYADSVKGRFTISRDNAKNTVYLQMNSLKPEDTAVYYCAARGQFYNTRVGYWGQGTQVTVSS”, with “high polyreactivity”.
In the case of “QVQLVESGGGLVQAGGSLRISCAASGSTFWYHAKGWSRQAPGKERELVATITNSGGSTYYADSVKGRFTISRDNAKNTVYLQKNSLKPEDTAVYYGATDVYSGALLKYDFWGQGTQVTVSS”, the “polyreactivity (PSR sort gate)” value is reported as “low polyreactivity”.
Then “QVQLVESGGGLVQAGGSLRISCAASGSTLGYYAMGWYRPAPAKESELVAAISRGGGSTYYADSVKGRFTISRDNAKNTVYLQMNSLKPEVTAVYYCNKYFAYGDFDYWGQGTQVTVSS”, with “high polyreactivity”; and “QVQLVESGGGLVQAGGSLRISCAASGSTLQYYAMGWYRQAPGKERELVAAISWRGARTYYADSVKGRFTISRDNAKNTVYLQMNSLKPQDTAVYYCAAVYGSRGYAGNYYWGHGTQVTVSS”, with “high polyreactivity”; and “QVQLVESGGGLVQAGGSLRISCAASGSTSSRNAMGWYRQAPGKERELVAAITSGTRTYYADSVKGRFTISRDNAKNSVYLQRNSLKPEDTAVYYCARGRVSRYTKTDYDYWGQGSQVTVSS”, with “high polyreactivity”.
“QVQLVESGGGLVQAGGSLRISCAASGYIYGYNAMGWYRQAPGIAREFVAAIRFSGGSTYYADSVKGRFTISRDNAKNTVYLQMNSLKPEDTAVYYCAKRCYAHLIPIAYEYWGQGTQVTVSS”: the “polyreactivity (PSR sort gate)” value is “low polyreactivity”.
For “QVQLVESGGGLVQAGGSLRISCAASGYTFASYTMGWYRQAPGKERELVATISRGGGRTYYADSVKGRFTISRDNAKNTVYLQLNSLKPEDTAVYYCARPSTFFTGYRQAHFDYWGQGTQVTVSS”, the “polyreactivity (PSR sort gate)” value is “high polyreactivity”.
As to “QVQLVESGGGLVQAGGSLRISCAASGYTFFNYAMGWSRQAPGKERELVAAITWSGGSRYYADSVKGRFTISRVNAKNTVYLQMNSLKPEDTAVYYCAADAITPRDPYVTEKLDYWGQGTQVTVSS”, the “polyreactivity (PSR sort gate)” value was “low polyreactivity”.
As to “QVQLVESGGGLVQAGGSLRISCAASVSTFGRYAMGWYRQAPGKERELVAAISRGTTTNYADSVKGRFTISRDNAKNTVYLQMNSLKPEDTAVYYCAADQPSKRYYYWGQGTQVTVSS”, the “polyreactivity (PSR sort gate)” value is on record as “low polyreactivity”.
Then “QVQLVESGGGLVQAGGSLRISCAAYGRIFWWYAMGWYRQAPGKERELVASIRYGGGSTYYADSVKGRFTISRDNAKNTVYLQMNSLKPEDTAVYYCAARFKRHGRSDYWGQGTQVTVSS”, with “high polyreactivity”; and “QVQLVESGGGLVQAGGSLRISCADCGSIFEVNAMGWYRPAPGTERELVAAISSGDRTNYADSVKGRFTISRDNAKNTVYLQMNSLKPEDTAVYYCNKGAAWRPFFGPYYNYEYWGQGTQVTVSS”, with “high polyreactivity”.
On to “QVQLVESGGGLVQAGGSLRISCDASGRTFYYYAMGWYRQAPGKERELVASITITDSTNYADSVKGRFTISRDNAKNTVYLQMNSLKPEDTAVYYCAKRGWGTSFYLSDYWGQGTEVTVSS”, for which the “polyreactivity (PSR sort gate)” value was “low polyreactivity”.
Turning to “QVQLVESGGGLVQAGGSLRISCDASGSTFYPYAMGWYRQAPGKERELVAAISSGGSTSYADSVKGRFTISRDNAKNTVYLQMNSLKPEDTAVYYCNASSPGAVPVYDYDYWGQGTQVTVSS”, the “polyreactivity (PSR sort gate)” value is “low polyreactivity”.
Then “QVQLVESGGGLVQAGGSLRISCGASGSTFAQNVMGWDRQAPGKERELVAAITSSGSTNYADSVKGRFTISRDNAKNTVYLQMNSLKPEDSAVYYCAKDVLAPYSRHDYWGQGTQVTVSS”, with “low polyreactivity”; and “QVQLVESGGGLVQAGGSLRISSAASGFNSPSYAMGWYRQAPGKERELVAAISSGDSTNYADSVKGRFTISRDNAKNTVYLLMNSLKPEDTAVYYCAARYREQYDYWGQGTQVTVSS”, with “low polyreactivity”; and “QVQLVESGGGLVQAGGSLRISSAASGLTFYRYAIGWYRQAPGKERELVAAIRSNVVTTYYADSVKGRFTISRDNAKNTVYLKMNSLKPEDTAVYYCAARFGRSAPPGYDYWGQGTQVTVSS”, with “high polyreactivity”.
As for “QVQLVESGGGLVQAGGSLRISSAASGSTFSRYAMGWYRQAPGKERELVAAISWRGGRTYYADSVKGRFTISRDNAKNTVYLQMNSLKPEDTAVYYCNAVSSFTSPRYDYWGQGTQVTVSS”, the entry is “high polyreactivity”; as for “QVQLVESGGGLVQAGGSLRISWAASGSTFGYYAMGWYRQAPGKDREWVAAISLGGGSTYYADSVKGRFTISRDNAKNTVYLQMNSLKPDDTAVYYCAARPYVRVKWKFNYWGQGTQVTVSS”, “low polyreactivity”.
Then “QVQLVESGGGLVQAGGSLRITCAASGSIFTGNAMGWYRQAPGKERELVAAISSSGGSTYYADSVKGRFTLSRDNAKNTVYLQMNSMKPEDTAVYYCAAYNNFLQYDYWGQGTQVTVSS”, with “low polyreactivity”; and “QVQLVESGGGLVQAGGSLRITCAASGSTYYHNVMGRYRPAPGKERELVARISSGGGSTSYADSVKGRFTISRDNAKNTVYLQMNSLKPEETAVYYCNKYYTKRGYFLPWYHYGSWGQGTQVTLSS”, with “high polyreactivity”.
